The source of these data is paper PMC10216903, “Implication of the Transmembrane Domain in the Interleukin 10 Receptor Platform Oligomerisation” (Cells, 2023).

The chains are these.
B1: IL-10Rβ, full-length subunit of the interleukin 10 receptor (receptor, UniProt Q61190 20-349, looked up)
chain: MIPPPEKVRMNSVNFKNILQWEVPAFPKTNLTFTAQYESYRSFQDHCKRTASTQCDFSHLSKYGDYTVRVRAELADEHSEWVNVTFCPVEDTIIGPPEMQIESLAESLHLRFSAPQIENEPETWTLKNIYDSWAYRVQYWKNGTNEKFQVVSPYDSEVLRNLEPWTTYCIQVQGFLLDQNRTGEWSEPICERTGNDEITPSWIVAIILIVSVLVVFLFLLGCFVVLWLIYKKTKHTFRSGTSLPQHLKEFLGHPHHSTFLLFSFPPPEEAEVFDKLSIISEESEGSKQSPEDNCASEPPSDPGPRELESKDEAPSPPHDDPKLLTSTSEV
notes: Interleukin 10 receptor subunit beta, full length; One tag per copy: Rluc fusion as donor, eYFP fusion as acceptor; also called IL-10Rβ_FL; full-length IL-10Rβ; source: HEK293, transfected, in living cells
B2: IL-10Rα, full-length subunit of the interleukin 10 receptor (receptor, UniProt Q61727 17-575, looked up)
chain: LEFIAYGTELPSPSYVWFEARFFQHILHWKPIPNQSESTYYEVALKQYGNSTWNDIHICRKAQALSCDLTTFTLDLYHRSYGYRARVRAVDNSQYSNWTTTETRFTVDEVILTVDSVTLKAMDGIIYGTIHPPRPTITPAGDEYEQVFKDLRVYKISIRKFSELKNATKRVKQETFTLTVPIGVRKFCVKVLPRLESRINKAEWSEEQCLLITTEQYFTVTNLSILVISMLLFCGILVCLVLQWYIRHPGKLPTVLVFKKPHDFFPANPLCPETPDAIHIVDLEVFPKVSLELRDSVLHGSTDSGFGSGKPSLQTEESQFLLPGSHPQIQGTLGKEESPGLQATCGDNTDSGICLQEPGLHSSMGPAWKQQLGYTHQDQDDSDVNLVQNSPGQPKYTQDASALGHVCLLEPKAPEEKDQVMVTFQGYQKQTRWKAEAAGPAECLDEEIPLTDAFDPELGVHLQDDLAWPPPALAAGYLKQESQGMASAPPGTPSRQWNQLTEEWSLLGVVSCEDLSIESWRFAHKLDPLDCGAAPGGLLDSLGSNLVTLPLISSLQVEE
notes: Interleukin 10 receptor subunit alpha, full length; One tag per copy: Rluc fusion as donor, eYFP fusion as acceptor (plasmids pRL-CMV and pEYFP-N1); also called IL-10Rα_FL; full-length IL-10Rα; source: HEK293, transfected, in living cells

For series [1], the target named is IL-10Rβ, full-length subunit of the interleukin 10 receptor (UniProt Q61190). As to the kind of experiment: FRET or BRET; BRET saturation assay in living HEK293 cells; full-length Rluc-tagged receptor (plasmid constant, 0.75 ng/mL) with increasing eYFP-tagged TM sequence plasmid; HBSS, coelenterazine H 5 µM, 37 °C. Background: Bioluminescence resonance energy transfer reports proximity on the nanometre scale.

Series [2] has as its target IL-10Rα, full-length subunit of the interleukin 10 receptor (UniProt Q61727). The series is described as above.
A further series addresses TM sequence of IL-10Rβ. Put plainly: FRET or BRET; BRET saturation assay in living HEK293 cells; TM sequence fused to Rluc (plasmid constant, 0.75 ng/mL) with increasing eYFP-fused TM sequence plasmid, wild type or mutant; HBSS, coelenterazine H 5 µM, 37 °C.
Another series addresses TM sequence of IL-10Rα. The series is described as above.
Series [3] concerns the target B2. As to the kind of experiment: FRET or BRET; BRET saturation assay in living HEK293 cells; full-length Rluc donor (plasmid constant, 0.75 ng/mL) with increasing full-length eYFP acceptor plasmid; HBSS, coelenterazine H 5 µM, 37 °C. The settings on record: partners not purified.
Series [4] deals with the molecule itself. The series is described as above.
Series [5] addresses B1. Described as above. The settings on record: partners not purified.

With “TM sequence of IL-10Rα (domain or fragment)”, the BRET50 amounted to 22 mBu in series [1], 28 mBu in series [2], 109 mBu with TM sequence of IL-10Rβ and 190 mBu with TM sequence of IL-10Rα.

“TM sequence of IL-10Rα with leucine 248 substituted by glycine (domain or fragment)”: the decrease of BRET50 against the wild-type TM homodimer with TM sequence of IL-10Rα came out at 27 % decrease.

In the case of “TM sequence of IL-10Rβ (domain or fragment)”, the BRET50 worked out at 35 mBu in series [1], 35 mBu in series [2], 78 mBu with TM sequence of IL-10Rβ and 141 mBu in the series with TM sequence of IL-10Rα.

Take B1: the BRET50 was 86 mBu in series [3] and 152 mBu in series [4].

Take B2: the BRET50 in series [4] and in series [5] was 28 mBu in each case.
